Test results from patent US11180777B2, “Cell fraction and method of generating a cell fraction containing a protein of interest” (Corning Incorporated, priority 2015, dated 2021).

Columns and labels:
Aldehyde Oxidase (AO) = molecular target: T1, Aldehyde Oxidase (AO) (Homo sapiens, UniProt Q06278); assay: AO assay with probe substrate phthalazine (HPLC); format: biochemical; conditions: rAO prepared with transfected HEK293 cells
T1 construct: made in house; host or cells: HEK293 cells, transfected by electroporation; supernatant (soluble fraction) after the 37,000 rpm spin
T1 sequence (Q06278 1-1338): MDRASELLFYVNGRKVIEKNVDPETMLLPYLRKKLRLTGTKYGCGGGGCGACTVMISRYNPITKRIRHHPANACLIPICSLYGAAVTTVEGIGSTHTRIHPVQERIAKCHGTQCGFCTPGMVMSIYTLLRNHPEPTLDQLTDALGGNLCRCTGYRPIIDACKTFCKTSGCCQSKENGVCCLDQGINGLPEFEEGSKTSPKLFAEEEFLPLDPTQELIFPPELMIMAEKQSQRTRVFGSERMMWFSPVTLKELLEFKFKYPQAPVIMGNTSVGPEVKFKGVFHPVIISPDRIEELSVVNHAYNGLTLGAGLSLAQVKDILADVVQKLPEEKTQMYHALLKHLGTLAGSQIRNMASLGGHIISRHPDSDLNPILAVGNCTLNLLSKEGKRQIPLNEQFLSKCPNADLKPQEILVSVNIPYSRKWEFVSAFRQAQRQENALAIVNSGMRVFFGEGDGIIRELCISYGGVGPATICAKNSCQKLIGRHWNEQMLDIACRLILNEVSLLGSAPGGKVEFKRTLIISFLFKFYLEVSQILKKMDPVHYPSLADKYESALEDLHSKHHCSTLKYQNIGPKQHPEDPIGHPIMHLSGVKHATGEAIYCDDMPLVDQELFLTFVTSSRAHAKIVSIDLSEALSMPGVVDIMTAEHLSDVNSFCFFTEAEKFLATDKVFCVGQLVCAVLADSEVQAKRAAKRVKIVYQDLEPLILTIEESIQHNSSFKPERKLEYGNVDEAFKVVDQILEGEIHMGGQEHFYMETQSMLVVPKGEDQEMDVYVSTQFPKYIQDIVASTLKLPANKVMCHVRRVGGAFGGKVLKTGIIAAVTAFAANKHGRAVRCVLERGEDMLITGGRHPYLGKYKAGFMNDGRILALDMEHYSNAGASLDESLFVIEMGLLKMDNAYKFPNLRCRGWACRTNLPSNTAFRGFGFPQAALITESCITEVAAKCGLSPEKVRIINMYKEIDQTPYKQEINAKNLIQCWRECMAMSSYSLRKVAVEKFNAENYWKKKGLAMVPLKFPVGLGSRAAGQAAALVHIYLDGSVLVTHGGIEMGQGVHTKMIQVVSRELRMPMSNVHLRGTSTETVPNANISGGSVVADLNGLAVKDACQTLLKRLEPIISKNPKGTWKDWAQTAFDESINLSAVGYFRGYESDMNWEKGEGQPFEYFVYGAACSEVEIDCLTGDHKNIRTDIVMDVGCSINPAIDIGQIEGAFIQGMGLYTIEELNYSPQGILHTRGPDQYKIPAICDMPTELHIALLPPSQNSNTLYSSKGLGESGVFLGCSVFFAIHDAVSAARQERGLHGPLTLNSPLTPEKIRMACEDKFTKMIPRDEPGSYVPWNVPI
Description: (§1) The recombinant AO and UGT1A1 enzymes were prepared as following. Briefly, the cells pellets obtained from the cell recovery step were washed once with phosphate buffered saline (PBS) and centrifuged at 1500 rpm for 10 min at 4° C. The resulting pellet was diluted with appropriate amount of 0.1 M potassium phosphate buffer, and transferred into Dounce Homogenizer followed with 10 stokes. The cell lysate was centrifuged at 2600 rpm for 10 minutes at 4° C. The supernatant was transferred to a new set of centrifuge tube and spun at 37,000 rpm for 15 minutes at 4° C. For recombinant AO, the supernatant (soluble fraction) was aliquoted and stored at −80° C. until use. For UGT1A1 microsomes, the pellet was resuspended in an appropriate amount of 0.1M Tris buffer and homogenized with a Dounce homogenizer with 10 strokes. The UGT1A1 microsomes were aliquoted and stored at −80° C. until use.
AO assays are carried out at 37° C. in 25 mM potassium phosphate buffer (pH7.4) containing 0.1 mM EDTA. 170 μL assay buffer was mixed with 20 μL 1 mM phthalazine and prewarmed to 37° C. in heat block. The reaction is initiated with 10 μL 5 mg/mL AO sample. The cap needs to be opened for oxygen circulation. After incubation, the reaction was stopped by the addition of 100 ul 94% acetonitrile/6% glacial acetic acid. The reaction mix was centrifuged (10,000×g) for 3 minutes and supernatant was analyzed on HPLC.

UGT1A1 = molecular target: T2, UGT1A1 (Homo sapiens, UniProt P22309); assay: UGT1A1 assay (beta-estradiol glucuronidation, HPLC); format: biochemical; conditions: electroporation method versus BEVs system
T2 construct: made in house; host or cells: HEK293 cells, electroporated with UGT1A1 cDNA; microsomes (membrane pellet)
T2 sequence (P22309 26-533): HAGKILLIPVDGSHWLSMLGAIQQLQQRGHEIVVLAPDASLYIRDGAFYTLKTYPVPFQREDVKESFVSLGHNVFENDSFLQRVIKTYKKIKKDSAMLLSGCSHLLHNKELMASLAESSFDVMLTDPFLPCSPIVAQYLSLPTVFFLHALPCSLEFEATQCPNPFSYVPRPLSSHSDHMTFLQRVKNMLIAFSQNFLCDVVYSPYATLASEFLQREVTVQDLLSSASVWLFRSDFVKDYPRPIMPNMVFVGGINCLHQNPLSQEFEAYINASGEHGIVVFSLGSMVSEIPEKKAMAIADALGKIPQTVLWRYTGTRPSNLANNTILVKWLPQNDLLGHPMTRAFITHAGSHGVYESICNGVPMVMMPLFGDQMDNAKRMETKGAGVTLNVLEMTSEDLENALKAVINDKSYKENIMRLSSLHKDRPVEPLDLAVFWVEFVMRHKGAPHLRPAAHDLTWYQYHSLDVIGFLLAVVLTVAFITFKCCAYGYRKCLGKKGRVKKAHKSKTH
Description: as §1
A 0.2 ml reaction mixture containing 1.0 mg/ml protein, 2 mM uridine diphosphoglucuronic acid (UDPGA), 10 mM magnesium chloride, 0.025 mg/ml alamethicin and 150 uM beta-estradiol in 50 mM Tris (pH 7.5) was incubated at 37° C. for 30 minutes. After incubation, the reaction was stopped by the addition of 50 ul 94% acetonitrile/6% glacial acetic acid. The reaction mix was centrifuged (10,000×g) for 3 minutes and supernatant was analyzed on HPLC.

Molecule	AO kinetics with phthalazine (Aldehyde Oxidase (AO))	UGT1A1 activity relative to UGT1A1 expressed with the BEVs system (UGT1A1)
Aldehyde Oxidase (AO): recombinant Phase 1 drug metabolizing enzyme Aldehyde Oxidase prepared with transfected HEK293 cells (soluble fraction)	exhibited standard michaelis-mention kinetics curve	
UGT1A1: UGT1A1 expressed using the electroporation method (HEK293 microsomes) (protein, UniProt P22309 26-533, looked up) UDP-glucuronosyltransferase …: HAGKILLIPVDGSHWLSMLGAIQQLQQRGHEIVVLAPDASLYIRDGAFYTLKTYPVPFQREDVKESFVSLGHNVFENDSFLQRVIKTYKKIKKDSAMLLSGCSHLLHNKELMASLAESSFDVMLTDPFLPCSPIVAQYLSLPTVFFLHALPCSLEFEATQCPNPFSYVPRPLSSHSDHMTFLQRVKNMLIAFSQNFLCDVVYSPYATLASEFLQREVTVQDLLSSASVWLFRSDFVKDYPRPIMPNMVFVGGINCLHQNPLSQEFEAYINASGEHGIVVFSLGSMVSEIPEKKAMAIADALGKIPQTVLWRYTGTRPSNLANNTILVKWLPQNDLLGHPMTRAFITHAGSHGVYESICNGVPMVMMPLFGDQMDNAKRMETKGAGVTLNVLEMTSEDLENALKAVINDKSYKENIMRLSSLHKDRPVEPLDLAVFWVEFVMRHKGAPHLRPAAHDLTWYQYHSLDVIGFLLAVVLTVAFITFKCCAYGYRKCLGKKGRVKKAHKSKTH		5 ×
